Source: patent US20200139098A1, “DELIVERY SYSTEM AND PROCESS” (POLYPHARMA PTY LTD, priority 2006, published 2020)

Test system: rabbit eyes
Experiment: Distribution of Avastin in sectioned rabbit eyes by fluorescence and DIC microscopy, after intravitreal injection or sonophoresis from a hydrogel
Assay type: in vivo
Excerpt: As described above, the delivery system or device can be used to deliver molecules and/or nanoparticles to the eye of a patient. Once delivered to the surface of the eye, the molecules and/or nanoparticles can penetrate the outer surface of the eye and diffuse to the posterior parts of the eye. For example, FIGS. 14 to 19 are optical microscope images of sectioned rabbit eyes imaged by Differential Interference Contrast (DIC) phase contrast imaging and fluorescence imaging, illustrating the distribution of the monoclonal antibody Avastin to various parts of the eye. Each of these six Figures includes two panels, comprising a left-hand panel showing a fluorescence image, and a right-hand panel showing a white light DIC phase contrast image. FIGS. 14 to 16 illustrate the distribution of Avastin delivered by intravitreal injection, whereas FIGS. 17 to 19 show the distribution of Avastin delivered from a hydrogel by sonophoresis of five minute duration. The red colour in the fluorescence images indicates a secondary antibody bound to Avastin. Consequently, the red colour indicates the location of Avastin in the tissues of the eye.
The vitreous humor is not visible in the “white-light” DIC images because the sections are mounted on the slides using a 90% glycerol solution in order to stabilise the cover slip and the section during the confocal microscopy. The glycerol has a similar refractive index to the vitreous humor.

Avastin: the monoclonal antibody Avastin
presence of Avastin in vitreous humor (staining) (rabbit eye (LE), Sonoactuator: hydrogel, sonophoresis of five minute duration): not visibly stained | presence of Avastin in vitreous (red staining) (rabbit eye (RE), intravitreal injection): abundant presence | staining of ciliary body for Avastin (rabbit eye, delivery from the gel with ultrasound): does not stain well | staining of ciliary body and iris for Avastin (rabbit eye, intravitreal injection): heavily stained | delivery of Avastin to choroid and retina (rabbit eye, non-invasive delivery from hydrogel under ultrasonic stimulation (FIGS. 17 to 19)): non-invasively delivered to the choroid and retina
